Data from publication PMC7440162 (Cell, 2020).

Experiments:
Assay in all cases: SPR
mouse Islr2 ECD-Fc = molecular target: T1, mouse Islr2 ECD-Fc (mouse, UniProt Q5RKR3 20-589, biotin on the AviTag (as SPR ligand))
T1 sequence: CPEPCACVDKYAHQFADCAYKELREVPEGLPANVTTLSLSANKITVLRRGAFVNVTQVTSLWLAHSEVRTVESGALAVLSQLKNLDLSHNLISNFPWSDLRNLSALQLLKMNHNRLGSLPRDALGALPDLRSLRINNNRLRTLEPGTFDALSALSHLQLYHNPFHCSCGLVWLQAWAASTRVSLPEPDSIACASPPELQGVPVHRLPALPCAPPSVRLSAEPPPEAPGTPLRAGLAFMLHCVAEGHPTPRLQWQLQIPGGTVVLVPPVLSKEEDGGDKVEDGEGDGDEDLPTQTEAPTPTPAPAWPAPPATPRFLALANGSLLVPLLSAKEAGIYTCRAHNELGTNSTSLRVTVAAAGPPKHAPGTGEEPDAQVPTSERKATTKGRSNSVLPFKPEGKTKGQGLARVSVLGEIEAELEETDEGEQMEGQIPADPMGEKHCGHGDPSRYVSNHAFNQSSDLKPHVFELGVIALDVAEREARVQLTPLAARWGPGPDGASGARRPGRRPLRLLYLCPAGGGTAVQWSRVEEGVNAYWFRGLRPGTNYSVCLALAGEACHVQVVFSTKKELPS

human ISLR2 ECD-Fc = molecular target: T2, human ISLR2 ECD-Fc (human, UniProt Q6UXK2 19-589, biotin on the AviTag (as SPR ligand))
T2 sequence: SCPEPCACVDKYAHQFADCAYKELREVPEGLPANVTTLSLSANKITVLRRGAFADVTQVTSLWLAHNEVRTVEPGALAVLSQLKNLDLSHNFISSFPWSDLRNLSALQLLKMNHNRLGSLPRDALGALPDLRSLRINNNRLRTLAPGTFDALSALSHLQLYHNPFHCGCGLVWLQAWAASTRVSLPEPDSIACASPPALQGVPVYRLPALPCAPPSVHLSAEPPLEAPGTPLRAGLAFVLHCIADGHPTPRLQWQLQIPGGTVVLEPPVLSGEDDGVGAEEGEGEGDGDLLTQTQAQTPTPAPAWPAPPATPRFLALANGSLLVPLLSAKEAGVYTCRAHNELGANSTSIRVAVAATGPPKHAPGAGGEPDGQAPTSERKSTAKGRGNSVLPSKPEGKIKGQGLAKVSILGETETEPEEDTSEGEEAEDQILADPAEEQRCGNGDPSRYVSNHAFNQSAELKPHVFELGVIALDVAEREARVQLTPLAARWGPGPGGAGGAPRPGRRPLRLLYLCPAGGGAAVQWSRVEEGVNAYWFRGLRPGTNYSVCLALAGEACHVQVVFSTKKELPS

mouse Lepr ECD-Fc = molecular target: T3, mouse Lepr ECD-Fc (mouse, UniProt P48356 22-839, biotin on the AviTag (as SPR ligand))
T3 sequence: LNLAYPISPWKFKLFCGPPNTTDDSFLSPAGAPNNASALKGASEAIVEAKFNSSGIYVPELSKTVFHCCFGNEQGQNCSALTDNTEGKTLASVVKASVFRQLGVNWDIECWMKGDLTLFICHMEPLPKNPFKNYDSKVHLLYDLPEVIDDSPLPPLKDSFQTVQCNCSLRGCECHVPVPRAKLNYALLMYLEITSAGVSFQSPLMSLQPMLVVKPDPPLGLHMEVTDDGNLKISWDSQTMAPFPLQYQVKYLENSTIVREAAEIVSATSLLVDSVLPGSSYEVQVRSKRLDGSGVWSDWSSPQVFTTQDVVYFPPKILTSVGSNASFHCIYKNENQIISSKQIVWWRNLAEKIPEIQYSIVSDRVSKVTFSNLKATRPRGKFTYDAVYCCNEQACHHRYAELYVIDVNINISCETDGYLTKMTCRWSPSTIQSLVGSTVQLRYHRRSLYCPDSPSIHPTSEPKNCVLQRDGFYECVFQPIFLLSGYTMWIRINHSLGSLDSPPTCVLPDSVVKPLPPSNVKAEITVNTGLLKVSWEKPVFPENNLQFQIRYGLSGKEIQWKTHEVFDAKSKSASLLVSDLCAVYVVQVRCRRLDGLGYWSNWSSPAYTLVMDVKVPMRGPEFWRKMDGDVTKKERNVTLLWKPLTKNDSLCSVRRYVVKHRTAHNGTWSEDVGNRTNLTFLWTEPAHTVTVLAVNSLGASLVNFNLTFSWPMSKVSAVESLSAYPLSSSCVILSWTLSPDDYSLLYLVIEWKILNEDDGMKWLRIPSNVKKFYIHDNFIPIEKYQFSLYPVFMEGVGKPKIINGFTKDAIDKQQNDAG

WFIKKN2-Fc = molecular target: T4, WFIKKN2-Fc (human, UniProt Q8TEU8 35-576, biotin on the AviTag (as SPR ligand))
T4 sequence: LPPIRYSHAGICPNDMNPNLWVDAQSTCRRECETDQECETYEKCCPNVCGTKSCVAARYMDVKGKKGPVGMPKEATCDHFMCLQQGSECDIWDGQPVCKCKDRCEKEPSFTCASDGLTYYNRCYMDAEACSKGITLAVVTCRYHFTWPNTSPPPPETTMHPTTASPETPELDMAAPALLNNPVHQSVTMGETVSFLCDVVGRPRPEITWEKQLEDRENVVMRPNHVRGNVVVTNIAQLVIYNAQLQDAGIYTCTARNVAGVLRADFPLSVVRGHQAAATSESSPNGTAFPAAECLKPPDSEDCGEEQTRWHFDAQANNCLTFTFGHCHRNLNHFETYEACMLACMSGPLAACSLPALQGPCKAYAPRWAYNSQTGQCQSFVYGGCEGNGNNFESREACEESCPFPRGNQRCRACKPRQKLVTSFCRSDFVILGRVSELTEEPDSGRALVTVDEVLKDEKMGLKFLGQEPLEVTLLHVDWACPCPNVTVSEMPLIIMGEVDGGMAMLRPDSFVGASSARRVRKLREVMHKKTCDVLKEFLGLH

ICAM5 ECD-Fc = molecular target: T5, ICAM5 ECD-Fc (human, UniProt Q9UMF0 32-835, biotin on the AviTag (as SPR ligand))
T5 sequence: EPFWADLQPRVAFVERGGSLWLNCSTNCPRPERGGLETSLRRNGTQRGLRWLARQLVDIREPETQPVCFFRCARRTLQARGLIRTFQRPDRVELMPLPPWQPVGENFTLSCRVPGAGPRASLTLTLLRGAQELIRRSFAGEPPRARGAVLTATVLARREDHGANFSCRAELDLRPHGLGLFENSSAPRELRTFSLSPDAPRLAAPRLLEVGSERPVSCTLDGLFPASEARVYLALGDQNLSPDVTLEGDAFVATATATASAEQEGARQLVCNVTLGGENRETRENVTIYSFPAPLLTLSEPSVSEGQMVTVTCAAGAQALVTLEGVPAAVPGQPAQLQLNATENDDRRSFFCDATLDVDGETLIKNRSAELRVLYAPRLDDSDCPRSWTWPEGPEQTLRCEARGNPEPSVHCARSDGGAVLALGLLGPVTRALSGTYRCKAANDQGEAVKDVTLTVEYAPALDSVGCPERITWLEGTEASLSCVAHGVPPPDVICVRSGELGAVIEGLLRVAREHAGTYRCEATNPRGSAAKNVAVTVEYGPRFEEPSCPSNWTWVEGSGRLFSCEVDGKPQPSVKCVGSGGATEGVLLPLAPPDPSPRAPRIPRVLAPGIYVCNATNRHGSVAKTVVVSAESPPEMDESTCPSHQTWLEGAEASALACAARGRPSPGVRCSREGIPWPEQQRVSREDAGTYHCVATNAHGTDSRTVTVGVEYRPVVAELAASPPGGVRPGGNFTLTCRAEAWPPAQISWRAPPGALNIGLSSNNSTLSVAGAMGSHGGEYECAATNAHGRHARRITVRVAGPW

LTF-Fc = LTF-Fc (human, UniProt P02788, biotin on the AviTag (as SPR ligand))
Sequence of LTF-Fc (P02788 20-710): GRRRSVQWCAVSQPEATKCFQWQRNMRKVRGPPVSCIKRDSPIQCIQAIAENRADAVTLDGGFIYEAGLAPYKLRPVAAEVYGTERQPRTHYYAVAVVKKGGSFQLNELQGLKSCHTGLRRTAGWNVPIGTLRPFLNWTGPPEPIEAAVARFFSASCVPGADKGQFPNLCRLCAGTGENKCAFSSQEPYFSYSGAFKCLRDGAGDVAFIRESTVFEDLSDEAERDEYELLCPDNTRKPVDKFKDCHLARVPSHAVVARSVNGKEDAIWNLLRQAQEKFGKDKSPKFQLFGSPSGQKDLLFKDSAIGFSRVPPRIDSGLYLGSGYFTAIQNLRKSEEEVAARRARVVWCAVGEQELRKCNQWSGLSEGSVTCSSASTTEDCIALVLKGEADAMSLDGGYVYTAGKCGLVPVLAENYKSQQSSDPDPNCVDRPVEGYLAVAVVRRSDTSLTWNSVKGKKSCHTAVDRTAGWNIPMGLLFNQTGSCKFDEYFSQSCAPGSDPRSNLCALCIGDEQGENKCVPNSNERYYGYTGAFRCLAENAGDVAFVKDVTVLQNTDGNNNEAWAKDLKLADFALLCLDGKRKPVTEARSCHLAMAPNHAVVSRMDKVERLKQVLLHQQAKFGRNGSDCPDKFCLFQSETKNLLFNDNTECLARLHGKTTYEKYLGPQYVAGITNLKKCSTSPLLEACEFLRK

PTPRS ECD-Fc = molecular target: T6, PTPRS ECD-Fc (human, UniProt Q13332 30-1282)
T6 sequence: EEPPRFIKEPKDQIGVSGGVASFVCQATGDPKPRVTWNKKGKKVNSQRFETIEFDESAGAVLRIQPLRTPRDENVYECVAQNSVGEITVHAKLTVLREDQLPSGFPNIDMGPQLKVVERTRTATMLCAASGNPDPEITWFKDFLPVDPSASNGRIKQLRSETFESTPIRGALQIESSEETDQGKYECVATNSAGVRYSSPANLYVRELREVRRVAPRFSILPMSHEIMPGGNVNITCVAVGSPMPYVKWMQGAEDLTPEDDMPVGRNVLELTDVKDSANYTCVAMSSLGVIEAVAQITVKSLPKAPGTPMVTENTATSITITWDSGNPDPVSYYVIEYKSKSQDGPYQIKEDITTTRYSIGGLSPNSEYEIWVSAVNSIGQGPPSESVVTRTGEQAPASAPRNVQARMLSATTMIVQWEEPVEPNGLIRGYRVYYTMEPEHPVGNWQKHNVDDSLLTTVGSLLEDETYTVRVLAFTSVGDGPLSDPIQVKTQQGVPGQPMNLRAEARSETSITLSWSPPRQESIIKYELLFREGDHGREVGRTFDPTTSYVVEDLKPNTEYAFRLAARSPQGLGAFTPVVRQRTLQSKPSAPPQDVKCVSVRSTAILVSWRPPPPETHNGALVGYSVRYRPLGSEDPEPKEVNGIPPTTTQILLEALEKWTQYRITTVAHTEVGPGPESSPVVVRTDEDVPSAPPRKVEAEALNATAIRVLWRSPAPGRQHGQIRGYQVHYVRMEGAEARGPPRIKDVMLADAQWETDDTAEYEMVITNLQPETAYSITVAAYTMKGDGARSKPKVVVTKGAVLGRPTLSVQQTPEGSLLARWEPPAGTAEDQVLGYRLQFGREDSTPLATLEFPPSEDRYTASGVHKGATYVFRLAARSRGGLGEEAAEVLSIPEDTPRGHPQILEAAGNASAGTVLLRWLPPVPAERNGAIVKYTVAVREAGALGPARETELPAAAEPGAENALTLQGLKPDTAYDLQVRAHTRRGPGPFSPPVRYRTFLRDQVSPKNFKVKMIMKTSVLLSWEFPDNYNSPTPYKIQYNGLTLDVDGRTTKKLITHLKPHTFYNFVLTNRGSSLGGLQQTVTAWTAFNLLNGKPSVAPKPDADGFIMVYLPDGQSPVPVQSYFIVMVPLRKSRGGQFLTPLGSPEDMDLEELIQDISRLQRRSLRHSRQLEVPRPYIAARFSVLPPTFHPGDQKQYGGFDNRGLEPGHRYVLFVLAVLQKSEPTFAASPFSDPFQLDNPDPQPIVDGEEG

FGFR3 ECD-Fc = molecular target: T7, FGFR3 ECD-Fc (human, UniProt P22607 23-375)
T7 sequence: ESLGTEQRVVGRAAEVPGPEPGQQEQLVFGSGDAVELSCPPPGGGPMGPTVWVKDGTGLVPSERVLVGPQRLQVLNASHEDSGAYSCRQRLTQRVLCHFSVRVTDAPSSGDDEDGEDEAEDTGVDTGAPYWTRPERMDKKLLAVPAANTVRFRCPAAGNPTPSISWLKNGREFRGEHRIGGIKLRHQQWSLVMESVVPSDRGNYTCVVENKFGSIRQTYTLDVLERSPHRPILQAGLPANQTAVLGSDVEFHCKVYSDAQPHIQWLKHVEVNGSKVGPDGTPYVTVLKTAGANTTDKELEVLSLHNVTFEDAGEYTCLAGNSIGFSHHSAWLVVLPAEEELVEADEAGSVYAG

Measured: binding result

B1: Recombinant Mouse Leptin Protein (monomer) (ligand)
chain: VPIQKVQDDTKTLIKTIVTRINDISHTQSVSAKQRVTGLDFIPGLHPILSLSKMDQTLAVYQQVLTSLPSQNVLQIANDLENLRDLLHLLAFSKSCSLPQTSGLQKPESLDGVLEASLYSTEVVALSRLQGSLQDILQQLDVSPEC
binds: mouse Islr2 ECD-Fc | human ISLR2 ECD-Fc | mouse Lepr ECD-Fc

B2: IL-6Rα ECD-Fc (Fc fusion)
chain: LAPRRCPAQEVARGVLTSLPGDSVTLTCPGVEPEDNATVHWVLRKPAAGSHPSRWAGMGRRLLLRSVQLHDSGNYSCYRAGRPAGTVHLLVDVPPEEPQLSCFRKSPLSNVVCEWGPRSTPSLTTKAVLLVRKFQNSPAEDFQEPCQYSQESQKFSCQLAVPEGDSSFYIVSMCVASSVGSKFSKTQTFQGCGILQPDPPANITVTAVARNPRWLSVTWQDPHSWNSSFYRLRFELRYRAERSKTFTTWMVKDLQHHCVIHDAWSGLRHVVQLRAQEEFGQGEWSEWSPEAMGTPWTESRSPPAENEVSTPMQALTTNKDDDNILFRDSANATSLPVQDSSSVPLP
modifications: biotin on the AviTag (as SPR ligand)
binds: WFIKKN2-Fc | human ISLR2 ECD-Fc | ICAM5 ECD-Fc | LTF-Fc

B3: IL1RAPL2 ECD-Fc (Fc fusion)
chain: TNLKMVSKRNSVDGCIDWSVDLKTYMALAGEPVRVKCALFYSYIRTNYSTAQSTGLRLMWYKNKGDLEEPIIFSEVRMSKEEDSIWFHSAEAQDSGFYTCVLRNSTYCMKVSMSLTVAENESGLCYNSRIRYLEKSEVTKRKEISCPDMDDFKKSDQEPDVVWYKECKPKMWRSIIIQKGNALLIQEVQEEDGGNYTCELKYEGKLVRRTTELKVTALLTDKPPKPLFPMENQPSVIDVQLGKPLNIPCKAFFGFSGESGPMIYWMKGEKFIEELAGHIREGEIRLLKEHLGEKEVELALIFDSVVEADLANYTCHVENRNGRKHASVLLRKKDLIYK
modifications: biotin on the AviTag (as SPR ligand)
binds: PTPRS ECD-Fc | FGFR3 ECD-Fc
